Laboratory results from the RNAGym collection of RNA variant scans (doi:10.1073/pnas.2313332121).
Fewer inactive variants are shown than the library holds.

B1: TPR 5TU (parent)
chain: GGAUCUUCUCGAUCUAACAAAAAAGACAAAUCUGCCACAAAGCUUGAGAGCAUCUUCGGAUGCAGAGGCGGCAGCCUUCGGUGGCGCGAUAGCGCCAACGUUCUCAACUAUGACACGCAAAACGCGUGCUCCGUUGAAUGGAGUUUAUCAUG

Variants of: B1
Test: polymerase ribozyme fitness, log enrichment relative to wild type (log ratio); higher = more active; in vitro selection for triplet polymerase activity
Outline: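 Only genotypes with ≥10 input reads and ≥1 read per output were kept after Illumina sequencing of input and output libraries. These libraries were PCR-built, transcribed mutants of each subunit of a heterodimeric triplet polymerase ribozyme, each put through one triplicate in vitro selection round with frozen incubation at −7 °C, gel excision of extended constructs, streptavidin-bead capture and RT-PCR. Fitness is a logarithmic ratio of genotype enrichment to wild-type enrichment, from inverse-variance-weighted replicate averages, with the logarithm in base 2.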

Question: Which “polymerase ribozyme fitness (log ratio)” value does the source give for GGAUCUUCUCGAUCUAACAAAAAAGACAAAUCUGCCACAAAGCUUGAGAGCAUCUUCGGAUGCAGAGGCGGCAGCCUUCGGUGGCGCGAUAGCGCCAACGUUCUCAACUAUGACACGCAAAACACGUGCUCCGUUGAAUGGAGUUUAUCAUG [G124A] here?
Answer: -0.246

Question: For GGAUCUUCUCGAUCUAACAAAAAAGACAAAUCUGCCACAAAGCUUGAGAGCAUCUUCGGAUGCAGAGGCGGCAGCCUUCGGUGGCGCGAUAGCGCCAACGUUCUCAACUAUGACACGCAAAACUCGUGCUCCGUUGAAUGGAGUUUAUCAUG [G124U], which “polymerase ribozyme fitness (log ratio)” value is on record?
Answer: -0.432

Question: Which “polymerase ribozyme fitness (log ratio)” value does the source give for GGAUCUUCUCGAUCUAACAAAAAAGACAAAUCUGCCACAAAGCUUGAGAGCAUCUUCGGAUGCAGAGGCGGCAGCCUUCGGUGGCGCGAUAGCGCCAACGUUCUCAACUAUGACACGCAAAACCCGUGCUCCGUUGAAUGGAGUUUAUCAUG [G124C] here?
Answer: -0.922

Question: For GGAUCUUCUCGAUCUAACAAAAAAGACAAAUCUGCCACAAAGCUUGAGAGCAUCUUCGGAUGCAGAGGCGGCAGCCUUCGGUGGCGCGAUAGCGCCAACGUUCUCAACUAUGACACGCAAUACGCGUGCUCCGUUGAAUGGACUUUAUCAUG [A121U G143C], which “polymerase ribozyme fitness (log ratio)” value is on record?
Answer: -1.7

Question: For GGAUCUUCUCGAUCUAACAAAAAAGACAAAUCUGCCACAAAGCUUGAGAGCAUCUUCGGAUGCAGAGGCGGCAGCCUUCGGUGGCGCGAUAGCGCCAACGUUCUCAACUAUGACACGCAACACGCGUGCUCCGUUGUAUGGAGUUUGUCAUG [A121C A137U A147G], which “polymerase ribozyme fitness (log ratio)” value is on record?
Answer: ≤ -4.2

Question: For GGAUCUUCUCGAUCUAACAAAAAAGACAAAUCUGCCACAAAGCUUGAGAGCAUCUUCGGAUGCAGAGGCGGCAGCCUUCGGUGGCGCGAUAGCGCCAACGUUCUCAACUAUGACACGCAAGACGCGUGCUCCGUUGAAUGGAGCUUAUCAUG [A121G U144C], which “polymerase ribozyme fitness (log ratio)” value is on record?
Answer: -0.191

Question: Which “polymerase ribozyme fitness (log ratio)” value does the source give for GGAUCUUCUCGAUCUAACAAAAAAGACAAAUCUGCCACAAAGCUUGAGAGCAUCUUCGGAUGCAGAGGCGGCAGCCUUCGGUGGCGCGAUAGCGCCAACGUUCUCAACUAUGACACGCAAGACGCGCGCUCCGUUGAAUGGAGUUUAUCAUG [A121G U127C] here?
Answer: -2.42

Question: Which “polymerase ribozyme fitness (log ratio)” value does the source give for GGAUCUUCUCGAUCUAACAAAAAAGACAAAUCUGCCACAAAGCUUGAGAGCAUCUUCGGAUGCAGAGGCGGCAGCCUUCGGUGGCGCGAUAGCGCCAACGUUCUCAACUAUGACACGCAAAAAGCGUGCUCCGUUGAAUGCAGUUUAUCAUG [C123A G141C] here?
Answer: 0.333

Question: For GGAUCUUCUCGAUCUAACAAAAAAGACAAAUCUGCCACAAAGCUUGAGAGCAUCUUCGGAUGCAGAGGCGGCAGCCUUCGGUGGCGCGAUAGCGCCAACGUUCUCAACUAUGACACGCAAAACCCGUGCUCCGUUAAAUGGAGUUUAUCAUG [G124C G136A], which “polymerase ribozyme fitness (log ratio)” value is on record?
Answer: -2.84

Question: With GGAUCUUCUCGAUCUAACAAAAAAGACAAAUCUGCCACAAAGCUUGAGAGCAUCUUCGGAUGCAGAGGCGGCAGCCUUCGGUGGCGCGAUAGCGCCAACGUUCUCAACUAUGACACGCAUAACGCGUGCUCCGUCGAAUGGAGUUUAUCAUG [A120U U135C] as the variant, how does the “polymerase ribozyme fitness (log ratio)” value read?
Answer: -2.85

Question: Which “polymerase ribozyme fitness (log ratio)” value does the source give for GGAUCUUCUCGAUCUAACAAAAAAGACAAAUCUGCCACAAAGCUUGAGAGCAUCUUCGGAUGCAGAGGCGGCAGCCUUCGGUGGCGCGAUAGCGCCAACGUUCUCAACUAUGACACGCAAAACUCGUGCUCCGUUAAAUGGAGUUUAUCAUG [G124U G136A] here?
Answer: 0.382

Question: With GGAUCUUCUCGAUCUAACAAAAAAGACAAAUCUGCCACAAAGCUUGAGAGCAUCUUCGGAUGCAGAGGCGGCAGCCUUCGGUGGCGCGAUAGCGCCAACGUUCUCAACUAUGACACGCAAAACGAGUGCUCCGUUGAAUGGAGUUUAUCAUG [C125A] as the variant, how does the “polymerase ribozyme fitness (log ratio)” value read?
Answer: -0.171

Question: With GGAUCUUCUCGAUCUAACAAAAAAGACAAAUCUGCCACAAAGCUUGAGAGCAUCUUCGGAUGCAGAGGCGGCAGCCUUCGGUGGCGCGAUAGCGCCAACGUUCUCAACUAUGACACGCAAAGCGCGUGCUCCGUUGAACGGAGUUUAUCAUG [A122G U139C] as the variant, how does the “polymerase ribozyme fitness (log ratio)” value read?
Answer: -4.09

Question: With GGAUCUUCUCGAUCUAACAAAAAAGACAAAUCUGCCACAAAGCUUGAGAGCAUCUUCGGAUGCAGAGGCGGCAGCCUUCGGUGGCGCGAUAGCGCCAACGUUCUCAACUAUGACACGCAAGACGCGUGCUCCGUUGAAUGUAGUUUAUUAUG [A121G G141U C149U] as the variant, how does the “polymerase ribozyme fitness (log ratio)” value read?
Answer: -3.72

Question: Which “polymerase ribozyme fitness (log ratio)” value does the source give for GGAUCUUCUCGAUCUAACAAAAAAGACAAAUCUGCCACAAAGCUUGAGAGCAUCUUCGGAUGCAGAGGCGGCAGCCUUCGGUGGCGCGAUAGCGCCAACGUUCUCAACUAUGACACGCAAGACGCGUGCUCCGUUGAAUGGAGUUUAUCAUG [A121G] here?
Answer: -0.0563

Question: Which “polymerase ribozyme fitness (log ratio)” value does the source give for GGAUCUUCUCGAUCUAACAAAAAAGACAAAUCUGCCACAAAGCUUGAGAGCAUCUUCGGAUGCAGAGGCGGCAGCCUUCGGUGGCGCGAUAGCGCCAACGUUCUCAACUAUGACACGCAAUACGCGUGCUCCGUUGAAUGGAGUUUAUCAUG [A121U] here?
Answer: -0.0614

Question: Which “polymerase ribozyme fitness (log ratio)” value does the source give for GGAUCUUCUCGAUCUAACAAAAAAGACAAAUCUGCCACAAAGCUUGAGAGCAUCUUCGGAUGCAGAGGCGGCAGCCUUCGGUGGCGCGAUAGCGCCAACGUUCUCAACUAUGACACGCAACACGCGUGCUCCGUUGAAUGGAGUUUAUCAUG [A121C] here?
Answer: 0.117

Question: With GGAUCUUCUCGAUCUAACAAAAAAGACAAAUCUGCCACAAAGCUUGAGAGCAUCUUCGGAUGCAGAGGCGGCAGCCUUCGGUGGCGCGAUAGCGCCAACGUUCUCAACUAUGACACGCAAAACGAGUGCUCCGUUGAAUGGAGUUCAUCAUG [C125A U146C] as the variant, how does the “polymerase ribozyme fitness (log ratio)” value read?
Answer: -0.394

Question: For GGAUCUUCUCGAUCUAACAAAAAAGACAAAUCUGCCACAAAGCUUGAGAGCAUCUUCGGAUGCAGAGGCGGCAGCCUUCGGUGGCGCGAUAGCGCCAACGUUCUCAACUAUGACACGCAACAAGCGCGCUCCGUUGAAUGGAGUUUAUCAUG [A121C C123A U127C], which “polymerase ribozyme fitness (log ratio)” value is on record?
Answer: -1.91
